In paper PMC5874619, “Enzymatic Preparation of 2,5-Furandicarboxylic Acid (FDCA)—A Substitute of Terephthalic Acid—By the Joined Action of Three Fungal Enzymes” (Microorganisms, 2018):

Columns and labels:
Experiment in all cases: HPLC, varied substrate, Michaelis-Menten plot
[1] = test system: T1, PostAAO; assay type: biochemical, Pleurotus ostreatus
T1 construct: gene aao

[2] = substrate: O=Cc1ccc(C=O)o1; assay type: biochemical, Cyclocybe aegerita; conditions: pH 6.0
[3] = substrate: O=Cc1ccc(CO)o1; assay type: biochemical, Cyclocybe aegerita; conditions: pH 6.0

Km [1] [mM] | Molecule | Km [2] [mM] | kcat [2] [s⁻¹] | kcat/Km [2] [M⁻¹ s⁻¹] | Km [3] [mM] | kcat [3] [s⁻¹] | kcat/Km [3] [M⁻¹ s⁻¹]
7.2 | O=Cc1ccc(CO)o1 [HMF, 5-hydroxymethylfurfural] |  |  |  |  |  | 
 | (Cyclocybe aegerita) (protein) EPGLPPGPLENSSAKLVNDEAHPWKPLRPGDIRGPCPGLNTLASHGYLPRNGVATPVQIINAVQEGLNFDNQAAVFATYAAHLVDGNLITDLLSIGRKTRLTGPDPPPPASVGGLNEHGTFEGDASMTRGDAFFGNNHDFNETLFEQLVDYSNRFGGGKYNLTVAGELRFKRIQDSIATNPNFSFVDFRFFTAYGETTFPANLFVDGRRDDGQLDMDAARSFFQFSRMPDDFFRAPSPRSGTGVEVVIQAHPMQPGRNVGKINSYTVDPTSSDFSTPCLMYEKFVNITVKSLYPNPTVQLRKALNTNLDFFFQGVAAGCTQVFPYGRD | 0.82 | 29.2 | 35600 | 6.07 | 222 | 36600
